The values that follow come from patent publication US20230118104A1, “COMPOSITIONS AND METHODS FOR TREATING PANCREATIC ENZYME DEFICIENCIES IN MAMMALS” (Vets Plus, Inc., priority 2018, published 2023).

What all share (type): biochemical
Assay [1] is described as follows: Amylase enzyme analysis, Benedict's Test, substrate Maltose. Particulars: enzyme 1 mg/ml, 10 minutes, pH 7, 38° C., 580 nm, n = 4. On the procedure:
(§1) Amylase enzyme from porcine and Bacillus amyloliquefaciens at 1 mg/ml concentration and a control of no enzymes were subjected to the Benedict's Test for 10 minutes at pH 7, 38° C., followed by spectrophotometric analysis at […].

Assay [2] in a line: Amylase enzyme analysis, Benedict's Test, substrate Dextrose. The note with it: enzyme 1 mg/ml, 10 minutes, pH 7, 38° C., 580 nm, n = 4. As to the method:
as §1

Assay [3] can be described thus: Amylase enzyme analysis, Benedict's Test, substrate Starch. Particulars: enzyme 1 mg/ml, 10 minutes, pH 7, 38° C., 580 nm, n = 4. On the procedure: as §1
The nature of assay [4]: Lipase enzyme analysis, free fatty acid (Phenolphthalein) Test. The note with it: substrate Fat / Vegetable oil; enzyme 1 mg/ml; 480 nM; n = 4. As to the method:
Lipase enzyme from porcine and Rhizopus oryzae at 1 mg/ml concentration and a control of no enzymes were subjected the free fatty acid (Phenolphthalein) Test followed by spectrophotometric analysis at […].

B1: Porcine Amylase: Amylase enzyme from porcine (protein, UniProt P00690 16-511, looked up)
Pancreatic alpha-amylase: QYAPQTQSGRTSIVHLFEWRWVDIALECERYLGPKGFGGVQVSPPNENIVVTNPSRPWWERYQPVSYKLCTRSGNENEFRDMVTRCNNVGVRIYVDAVINHMCGSGAAAGTGTTCGSYCNPGNREFPAVPYSAWDFNDGKCKTASGGIESYNDPYQVRDCQLVGLLDLALEKDYVRSMIADYLNKLIDIGVAGFRIDASKHMWPGDIKAVLDKLHNLNTNWFPAGSRPFIFQEVIDLGGEAIQSSEYFGNGRVTEFKYGAKLGTVVRKWSGEKMSYLKNWGEGWGFMPSDRALVFVDNHDNQRGHGAGGASILTFWDARLYKVAVGFMLAHPYGFTRVMSSYRWARNFVNGQDVNDWIGPPNNNGVIKEVTINADTTCGNDWVCEHRWRQIRNMVWFRNVVDGQPFANWWANGSNQVAFGRGNRGFIVFNNDDWQLSSTLQTGLPGGTYCDVISGDKVGNSCTGIKVYVSSDGTAQFSISNSAEDPFIAIHAESKL
For the molecule B1, the “absorbance, Benedict's Test” value is given as 3.108 +/− 0.15 in assay [1], 3.078 +/− 0.13 in assay [2] and 2.087 +/− 0.11 in assay [3].

B2: Porcine Lipase: Lipase enzyme from porcine (protein, UniProt P00591 1-450, looked up)
Pancreatic triacylglycerol …: SEVCFPRLGCFSDDAPWAGIVQRPLKILPWSPKDVDTRFLLYTNQNQNNYQELVADPSTITNSNFRMDRKTRFIIHGFIDKGEEDWLSNICKNLFKVESVNCICVDWKGGSRTGYTQASQNIRIVGAEVAYFVEVLKSSLGYSPSNVHVIGHSLGSHAAGEAGRRTNGTIERITGLDPAEPCFQGTPELVRLDPSDAKFVDVIHTDAAPIIPNLGFGMSQTVGHLDFFPNGGKQMPGCQKNILSQIVDIDGIWEGTRDFVACNHLRSYKYYADSILNPDGFAGFPCDSYNVFTANKCFPCPSEGCPQMGHYADRFPGKTNGVSQVFYLNTGDASNFARWRYKVSVTLSGKKVTGHILVSLFGNEGNSRQYEIYKGTLQPDNTHSDEFDSDVEVGDLQKVKFIWYNNNVINPTLPRVGASKITVERNDGKVYDFCSQETVREEVLLTLNPC
B2: the “absorbance, free fatty acid (Phenolphthalein) Test” value in assay [4] was 3.17 +/− 0.11.
